In article doi:10.1101/2022.09.09.507346 (bioRxiv, 2022):

T1: MBP-GLK1 fusion protein (Golden2-like transcription factor GLK1, full length) (Arabidopsis thaliana, UniProt Q9SIV3 1-420)
T1 sequence (looked up): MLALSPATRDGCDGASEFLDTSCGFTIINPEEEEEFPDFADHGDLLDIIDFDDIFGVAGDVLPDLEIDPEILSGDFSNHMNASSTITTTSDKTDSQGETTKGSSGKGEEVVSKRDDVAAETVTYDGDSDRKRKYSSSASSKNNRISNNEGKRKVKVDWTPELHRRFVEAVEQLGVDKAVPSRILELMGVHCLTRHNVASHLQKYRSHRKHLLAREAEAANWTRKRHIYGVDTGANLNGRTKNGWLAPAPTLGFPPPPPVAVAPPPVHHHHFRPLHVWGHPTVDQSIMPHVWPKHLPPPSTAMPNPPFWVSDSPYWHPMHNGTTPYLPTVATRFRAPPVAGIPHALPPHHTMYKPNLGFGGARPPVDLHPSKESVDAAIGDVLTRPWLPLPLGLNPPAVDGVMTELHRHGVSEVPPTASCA

T2: MBP-GLK2 fusion protein (Golden2-like transcription factor GLK2, full length) (Arabidopsis thaliana, UniProt Q9FFH0 1-386)
T2 sequence (looked up): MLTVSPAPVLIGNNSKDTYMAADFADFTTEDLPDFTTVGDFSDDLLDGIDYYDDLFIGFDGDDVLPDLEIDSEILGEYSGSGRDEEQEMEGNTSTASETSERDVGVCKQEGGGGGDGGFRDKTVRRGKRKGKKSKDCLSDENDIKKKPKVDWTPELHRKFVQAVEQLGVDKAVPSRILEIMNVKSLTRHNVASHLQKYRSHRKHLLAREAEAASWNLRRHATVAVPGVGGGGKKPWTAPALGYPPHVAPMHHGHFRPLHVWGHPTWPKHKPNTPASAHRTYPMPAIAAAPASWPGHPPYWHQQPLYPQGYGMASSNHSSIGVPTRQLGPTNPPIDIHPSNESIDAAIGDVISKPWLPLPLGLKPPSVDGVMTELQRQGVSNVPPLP


Assays:
[1] = target: T1, MBP-GLK1 fusion protein (Golden2-like …); test: pull-down
[2] = target: T2, MBP-GLK2 fusion protein (Golden2-like …); test: pull-down

binding result [1] | binding result [2] | Binder
binds | binds | GST-GBF3 fusion protein (G-box Binding Factor 3, full length) (natural protein, Arabidopsis thaliana, UniProt P42776 1-382, looked up) MGNSSEEPKPPTKSDKPSSPPVDQTNVHVYPDWAAMQAYYGPRVAMPPYYNSAMAASGHPPPPYMWNPQHMMSPYGAPYAAVYPHGGGVYAHPGIPMGSLPQGQKDPPLTTPGTLLSIDTPTKSTGNTDNGLMKKLKEFDGLAMSLGNGNPENGADEHKRSRNSSETDGSTDGSDGNTTGADEPKLKRSREGTPTKDGKQLVQASSFHSVSPSSGDTGVKLIQGSGAILSPGVSANSNPFMSQSLAMVPPETWLQNERELKRERRKQSNRESARRSRLRKQAETEELARKVEALTAENMALRSELNQLNEKSDKLRGANATLLDKLKCSEPEKRVPANMLSRVKNSGAGDKNKNQGDNDSNSTSKLHQLLDTKPRAKAVAAG
binds | binds | GST-GBF2 fusion protein (G-box Binding Factor 2, full length) (natural protein, Arabidopsis thaliana, UniProt P42775 1-360, looked up) MGSNEEGNPTNNSDKPSQAAAPEQSNVHVYHHDWAAMQAYYGPRVGIPQYYNSNLAPGHAPPPYMWASPSPMMAPYGAPYPPFCPPGGVYAHPGVQMGSQPQGPVSQSASGVTTPLTIDAPANSAGNSDHGFMKKLKEFDGLAMSISNNKVGSAEHSSSEHRSSQSSENDGSSNGSDGNTTGGEQSRRKRRQQRSPSTGERPSSQNSLPLRGENEKPDVTMGTPVMPTAMSFQNSAGMNGVPQPWNEKEVKREKRKQSNRESARRSRLRKQAETEQLSVKVDALVAENMSLRSKLGQLNNESEKLRLENEAILDQLKAQATGKTENLISRVDKNNSVSGSKTVQHQLLNASPITDPVAAS
binds | binds | GST-GBF1 fusion protein (G-box Binding Factor 1, full length) (natural protein, Arabidopsis thaliana, UniProt P42774 1-315, looked up) MGTSEDKMPFKTTKPTSSAQEVPPTPYPDWQNSMQAYYGGGGTPNPFFPSPVGSPSPHPYMWGAQHHMMPPYGTPVPYPAMYPPGAVYAHPSMPMPPNSGPTNKEPAKDQASGKKSKGNSKKKAEGGDKALSGSGNDGASHSDESVTAGSSDENDENANQQEQGSIRKPSFGQMLADASSQSTTGEIQGSVPMKPVAPGTNLNIGMDLWSSQAGVPVKDERELKRQKRKQSNRESARRSRLRKQAECEQLQQRVESLSNENQSLRDELQRLSSECDKLKSENNSIQDELQRVLGAEAVANLEQNAAGSKDGEGTN
